Experimental data published in PMC6215006.

target: recombinant human macrophage-colony stimulating factor (human) (UniProt P09603)
UniProt P09603, sequence (P09603 36-181): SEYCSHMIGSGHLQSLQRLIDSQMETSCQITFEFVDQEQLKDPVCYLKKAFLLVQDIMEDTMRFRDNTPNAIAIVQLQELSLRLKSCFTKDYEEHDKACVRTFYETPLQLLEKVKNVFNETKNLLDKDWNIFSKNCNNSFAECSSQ

Substance	inhibition of the differentiation of bone marrow-derived osteoclast precursors into osteoclasts with M-CSF (30 ng/mL) and RANKL (100 ng/mL), TRAP(+) MNCs; maximum inhibitory dose
mouse syndecan-1 ectodomain from HEK293E cells (from UniProt P18828 23-255) (domain or fragment)	1 nM
mouse syndecan-2 ectodomain from HEK293E cells (from UniProt P43407 19-145) (domain or fragment)	1 nM
mouse syndecan-3 ectodomain from HEK293E cells (from UniProt Q64519 45-387) (domain or fragment)	1 nM
mouse syndecan-4 ectodomain from HEK293E cells (from UniProt O35988 24-145) (domain or fragment)	1 nM
